This assay concerns the target thioredoxin (1–73) (E. coli, UniProt P0AA25 2-74 = thioredoxin). Put plainly: magic angle spinning solid-state NMR.

thioredoxin (1–73), sequence (P0AA25 2-74): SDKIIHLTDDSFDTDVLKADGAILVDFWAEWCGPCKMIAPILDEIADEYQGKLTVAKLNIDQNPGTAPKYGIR

For GIPTLLLFKNGEVAATKVGALSKGQLKEFLDANLA (domain or fragment, E. coli, UniProt P0AA25 75-109, looked up) [thioredoxin (74–108)], the binding result is reported as “binds”.

The record behind these values is PMC4890720 (Methods in molecular biology (Clifton, N.J.), 2012).
